Source: paper PMC4807272, “Structural Determinants of Oligomerization of the Aquaporin-4 Channel*” (The Journal of Biological Chemistry, 2016)
Numbering of substitutions follows the chain as printed. In names and notes the source's numbering stands. Values belong to the molecule of their own block, whether it stands above or below them.

Assays:
[1] = target: AQP4 TM1 compound mutant (I43A/I47A/L50A/L51A/I57A), C-terminal GFP fusion (UniProt P55087); experiment: BN-PAGE and Western blotting, densitometry; settings: Triton X-100-solubilized protein from HEK293 cells; 3 experimental repeats; read off a plot
Target sequence in this assay (P55087 whole entry I47A/L50A/L51A/I57A, stated change not applied, the tested form may be a part): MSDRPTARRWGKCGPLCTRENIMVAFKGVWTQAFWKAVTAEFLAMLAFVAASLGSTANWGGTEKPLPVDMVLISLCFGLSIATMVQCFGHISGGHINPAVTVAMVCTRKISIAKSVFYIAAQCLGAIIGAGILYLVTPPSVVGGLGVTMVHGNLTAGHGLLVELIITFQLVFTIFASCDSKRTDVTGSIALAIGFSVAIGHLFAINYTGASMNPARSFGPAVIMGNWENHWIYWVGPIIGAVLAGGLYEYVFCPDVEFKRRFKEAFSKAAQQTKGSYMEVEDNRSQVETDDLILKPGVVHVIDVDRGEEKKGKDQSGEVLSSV

[2] = target: AQP4 TM1 compound mutant (I43A/I47A/L50A/L51A/I57A), C-terminal GFP fusion (UniProt P55087); experiment: native gel or EMSA; BN-PAGE (8% bis-tris gel, pH 7.0, on ice) of whole-cell lysates of transfected HEK293 cells in 1% Triton X-100 BN lysis buffer, then immunoblot (anti-AQP4 or anti-GFP) and densitometry; self-association: tetramer, dimer, monomer bands
[3] = target: wild-type human AQP1 (human) (UniProt P29972); experiment: as above
[4] = target: AQP4 I43A, C-terminal GFP fusion (UniProt P55087); experiment: as above
[5] = target: AQP4 I43A, C-terminal GFP fusion (UniProt P55087); experiment: BN-PAGE and Western blotting, densitometry; settings: Triton X-100-solubilized protein from HEK293 cells; 3 experimental repeats; read off a plot
Target sequence in this assay (P55087 whole entry, stated change not applied, the tested form may be a part): as the sequence (P55087 whole entry I47A/L50A/L51A/I57A, stated change not applied, the tested form may be a part) above, with A47I, A50L, A51L, A57I counted along it

[6] = target: the molecule itself; experiment: native gel or EMSA; BN-PAGE (8% bis-tris gel, pH 7.0, on ice) of whole-cell lysates of transfected HEK293 cells in 1% Triton X-100 BN lysis buffer, then immunoblot (anti-AQP4 or anti-GFP) and densitometry; self-association: tetramer, dimer, monomer bands

B1: wild-type AQP9 (natural protein, human, UniProt O43315 1-295, looked up)
chain: MQPEGAEKGKSFKQRLVLKSSLAKETLSEFLGTFILIVLGCGCVAQAILSRGRFGGVITINVGFSMAVAMAIYVAGGVSGGHINPAVSLAMCLFGRMKWFKLPFYVGAQFLGAFVGAATVFGIYYDGLMSFAGGKLLIVGENATAHIFATYPAPYLSLANAFADQVVATMILLIIVFAIFDSRNLGAPRGLEPIAIGLLIIVIASSLGLNSGCAMNPARDLSPRLFTALAGWGFEVFRAGNNFWWIPVVGPLVGAVIGGLIYVLVIEIHHPEPDSVFKTEQSEDKPEKYELSVIM
notes: aquaporin-9 (AQP9), human; The construct and its tag are not described; a GFP tag is surmised; source: HEK293, transfected, Triton X-100-extracted protein
stoichiometry N [6]: 4

B2: wild-type AQP10 (natural protein, human, UniProt Q96PS8 1-301, looked up)
chain: MVFTQAPAEIMGHLRIRSLLARQCLAEFLGVFVLMLLTQGAVAQAVTSGETKGNFFTMFLAGSLAVTIAIYVGGNVSGAHLNPAFSLAMCIVGRLPWVKLPIYILVQLLSAFCASGATYVLYHDALQNYTGGNLTVTGPKETASIFATYPAPYLSLNNGFLDQVLGTGMLIVGLLAILDRRNKGVPAGLEPVVVGMLILALGLSMGANCGIPLNPARDLGPRLFTYVAGWGPEVFSAGNGWWWVPVVAPLVGATVGTATYQLLVALHHPEGPEPAQDLVSAQHKASELETPASAQMLECKL
notes: aquaporin-10 (AQP10), human; The construct and its tag are not described; a GFP tag is surmised; source: HEK293, transfected, Triton X-100-extracted protein
stoichiometry N [6]: 4

B3: AQP3 P181S/Y182K/N183R (natural protein, human, UniProt Q92482 1-292, looked up)
chain: MGRQKELVSRCGEMLHIRYRLLRQALAECLGTLILVMFGCGSVAQVVLSRGTHGGFLTINLAFGFAVTLGILIAGQVSGAHLNPAVTFAMCFLAREPWIKLPIYTLAQTLGAFLGAGIVFGLYYDAIWHFADNQLFVSGPNGTAGIFATYPSGHLDMINGFFDQFIGTASLIVCVLAIVDSKRNPVPRGLEAFTVGLVVLVIGTSMGFNSGYAVNPARDFGPRLFTALAGWGSAVFTTGQHWWWVPIVSPLLGSIAGVFVYQLMIGCHLEQPPPSNEEENVKLAHVKHKEQI
notes: aquaporin-3 (AQP3), human; DPYNN changed to DSKRN; The construct and its tag are not described; a GFP tag is surmised; also called AQP3 DSKRN mutant; source: HEK293, transfected, extracted with Triton X-100
stoichiometry N [6]: 2

B4: AQP3 P181E/Y182K/N183R (natural protein, human, UniProt Q92482 1-292, looked up)
chain: B3 chain with S181E
notes: aquaporin-3 (AQP3), human; DPYNN changed to DEKRN; The construct and its tag are not described; a GFP tag is surmised; also called AQP3 DEKRN mutant; source: HEK293, transfected, extracted with Triton X-100
stoichiometry N [6]: 2

Now from value to molecule:

other: % tetrameric protein [1]: 100%
Molecule: wild-type human AQP4, C-terminal GFP fusion (from UniProt P55087) I43A; I47A; L50A; L51A; I57A

stoichiometry N [2]: 4
Molecule: AQP4 TM1 compound mutant (I43A/I47A/L50A/L51A/I57A), C-terminal GFP fusion (from UniProt P55087 1-323) (natural protein)

stoichiometry N [3]: 4
Molecule: wild-type human AQP1 (from UniProt P29972 1-269) (natural protein)

stoichiometry N [4]: 4
Molecule: AQP4 I43A, C-terminal GFP fusion (from UniProt P55087 1-323) (natural protein)

other: % tetrameric protein [5]: 100%
Molecule: wild-type human AQP4, C-terminal GFP fusion (from UniProt P55087) I43A
